# Assay results as given in PMC4699573 (Molecular bioSystems, 2016).
# Biological target: T1, EcoR124I (Escherichia coli, UniProt P10484+P10485+P10486)
# T1 sequence (P10485 1-404): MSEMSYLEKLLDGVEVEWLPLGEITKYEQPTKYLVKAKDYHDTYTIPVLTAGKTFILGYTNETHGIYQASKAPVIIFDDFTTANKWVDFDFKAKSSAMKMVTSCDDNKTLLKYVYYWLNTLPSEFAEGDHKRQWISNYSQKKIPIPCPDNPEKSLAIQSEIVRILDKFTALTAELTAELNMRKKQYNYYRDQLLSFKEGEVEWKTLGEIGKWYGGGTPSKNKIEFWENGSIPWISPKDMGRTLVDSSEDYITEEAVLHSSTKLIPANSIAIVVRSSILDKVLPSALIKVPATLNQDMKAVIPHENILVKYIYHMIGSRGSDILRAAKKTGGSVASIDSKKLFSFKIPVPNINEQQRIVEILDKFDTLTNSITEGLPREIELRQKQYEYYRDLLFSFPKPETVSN
# T1 sequence (P10484 1-520): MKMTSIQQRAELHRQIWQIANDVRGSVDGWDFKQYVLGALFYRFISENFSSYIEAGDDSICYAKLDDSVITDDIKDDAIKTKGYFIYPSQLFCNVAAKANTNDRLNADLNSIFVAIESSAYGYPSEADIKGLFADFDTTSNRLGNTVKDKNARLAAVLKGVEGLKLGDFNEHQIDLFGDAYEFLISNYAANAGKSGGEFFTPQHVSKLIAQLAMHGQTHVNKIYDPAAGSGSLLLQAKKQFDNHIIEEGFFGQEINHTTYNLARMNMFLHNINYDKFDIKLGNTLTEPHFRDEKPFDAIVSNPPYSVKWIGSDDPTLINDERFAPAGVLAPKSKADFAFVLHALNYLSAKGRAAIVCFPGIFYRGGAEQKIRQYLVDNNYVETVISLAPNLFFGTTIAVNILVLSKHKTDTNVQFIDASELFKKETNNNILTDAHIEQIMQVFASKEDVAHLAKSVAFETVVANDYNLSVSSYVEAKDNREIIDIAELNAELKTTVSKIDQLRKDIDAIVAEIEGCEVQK
# T1 sequence (P10486 1-1038): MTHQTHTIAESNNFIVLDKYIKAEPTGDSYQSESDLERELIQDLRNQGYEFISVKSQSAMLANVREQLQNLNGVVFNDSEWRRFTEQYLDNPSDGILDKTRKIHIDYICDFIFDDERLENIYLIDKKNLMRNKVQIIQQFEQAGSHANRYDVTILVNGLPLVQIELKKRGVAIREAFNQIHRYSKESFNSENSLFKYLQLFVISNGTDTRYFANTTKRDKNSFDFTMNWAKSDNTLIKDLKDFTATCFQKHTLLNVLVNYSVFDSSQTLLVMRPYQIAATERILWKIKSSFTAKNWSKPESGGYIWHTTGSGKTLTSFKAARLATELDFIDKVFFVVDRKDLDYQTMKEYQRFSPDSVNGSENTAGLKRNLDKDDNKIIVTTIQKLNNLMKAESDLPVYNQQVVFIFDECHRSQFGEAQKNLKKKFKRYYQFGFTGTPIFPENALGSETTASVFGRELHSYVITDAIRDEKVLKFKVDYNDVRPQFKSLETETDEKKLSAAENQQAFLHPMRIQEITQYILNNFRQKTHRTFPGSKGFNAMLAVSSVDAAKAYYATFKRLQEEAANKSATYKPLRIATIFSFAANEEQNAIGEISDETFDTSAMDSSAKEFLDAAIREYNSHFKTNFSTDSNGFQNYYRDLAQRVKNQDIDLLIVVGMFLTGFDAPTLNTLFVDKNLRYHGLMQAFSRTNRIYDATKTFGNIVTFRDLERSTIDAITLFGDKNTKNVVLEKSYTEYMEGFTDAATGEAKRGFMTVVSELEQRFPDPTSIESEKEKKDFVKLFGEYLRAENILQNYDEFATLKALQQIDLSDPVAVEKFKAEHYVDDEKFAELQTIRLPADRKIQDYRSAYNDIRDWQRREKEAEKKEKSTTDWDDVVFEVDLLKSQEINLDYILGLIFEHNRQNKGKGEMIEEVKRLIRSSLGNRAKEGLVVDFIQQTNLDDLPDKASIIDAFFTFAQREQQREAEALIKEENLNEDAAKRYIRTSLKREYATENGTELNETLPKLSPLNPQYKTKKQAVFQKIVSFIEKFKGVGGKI
# Experiment: Coupled spectrophotometric ATPase assay
# Assay type: biochemical
# Conditions: EcoR124I pre-incubated with protein, reaction initiated by scDNA; Figure S1
substance,measurement,value
"Ocr: anti-restriction protein of bacteriophage T7 (overcome classical restriction), mimics B-DNA",Concentration at which ATP hydrolysis of EcoR124I is retarded / abolished,100 nM
